Patent US12006519B2, “Polymerase mutants and use with 3′-OH unblocked reversible terminators” (Agilent Technologies, Inc., priority 2021, dated 2024)

Legend:
Assay type in all cases: biochemical
[1] = tested on: LTA-2; assay: Template-independent incorporation of LTA-2, LTU-2, LTG-2, LTC-2 to priming strands
Method: The template-independent DNA synthesis reactions employed 7.5 U TdT (Promega) or 180 nM (3×over primer) Pfu26 (D141A/E143A/A486L/Y546H/K477W/L409Y) or Pfu48 (D141A/E143A/A486R/Y546H/K477W/L409Y). Varying concentrations of dATP were added to 2 μM (TdT) or 60 nM (Pfu) T7 FOR primer (6′Fam […]) (SEQ ID NO:6) in duplicate reactions containing 1×TdT buffer with CoCl2(Promega) or 1×ThermoPol buffer (NEB). Reactions were incubated for 30 min. at 37° C. (TdT) or 60° C. (Pfu), and then inactivated with heat (TdT; 10 min. at 70° C.) or EDTA (1 ul 500 uM EDTA). Reaction products were exposed to UV using a Stratalinker (15-watt bulbs, […], 10 min). Reactions were diluted in water (TdT, 1:333; Pfu, 1:10) and 1 μl (TdT) or 0.5 μl (Pfu) aliquots were brought up to 10 μl with HiDI/LIZ 120 Size Standard. Products were heated at 95° C. for 5 min., cooled on ice for 2 min., and then analyzed on an ABI 3500 capillary electrophoresis system ([…] capillary, filter set #5, assay=GE5 LIZ120).
In this example, primer extension was carried out with LTA-2 (FIG. 1F) as a Rp+Sp racemic mixture of α-thiotriphosphate, using the conditions described in Example 7.
In further experiments, single-base extension reactions (10 ul) were performed with an equimolar mixture (3 uM each) of two single-stranded oligommcleotides:
Both were labeled with Fam but distinguishable by their lengths using capillary electrophoresis. Primer extension reactions were performed using the following three Pfu mutants at a concentration of 18 nM polymerase: • Pfu10: Pfu polymerase with D141A/E143A/A486L/Y546H/K477W mutations (SEQ ID NO:2) • Pfu26: Pfu polymerase with D141A/E143A/A486L/Y546H/K477W/L409Y mutations (SEQ ID NO:4) • Pfu48: Pfu polymerase with D141A/E143A/A486R/Y546H/K477W/L409Y mutations (SEQ ID NO:5) The extension reactions also employed individual αS-modified LTs in Rp+Sp racemic mixture (namely, LTA-2, LTU-2, LTG-2, and LTC-2) at final concentrations of 5 uM. LTU-2, LTG-2, and LTC-2 are all C7 or C5-hydroxymethyl-a-tert-butyl-2-nitrobenzyl modified reversible terminators like LTA-2, with uracil, guanine, and cytosine in place of adenine. […] Reactions were incubated, stopped, UV-treated, and analyzed as described in Example 7.
(§1) Primer extensions were carried out in duplicate 25 ul reactions containing 7.5 U calf thymus TdT, 1×Promega TdT buffer (with CoCl2), varying concentrations of LTA-1 (100 uM, 50 uM, 10 uM, 5 uM, or 1 uM), and either 2 uM (FIG. 11A to 11C) or 80 nM (FIG. 11D to 11F) of a priming strand (Fam-labeled T7 F primer (6Fam […]), SEQ ID NO:8). Controls were performed without the addition of a polymerase. Primer extensions were also carried out in reactions containing the Pfu26 mutant polymerase, 60 nM of the priming strand, and various concentrations (10 μM or 5 μM or 1 μM) of LTA-1 or LTA-2.

[2] = tested on: LTA-1; assay: Template-independent incorporation of LTA-1 to a priming strand
Method: This example tested the addition of a 3′-OH unblocked reversible terminator (LTA-1, shown in FIG. 1E, or LTA-2, shown in FIG. 1F) to the 3′ end of a single-stranded priming strand. The extension reaction was performed with 2 uM or 80 nM of a priming strand and varying concentrations (100/50/10/5/1 μM) of the reversible terminator. The performance of the Pfu26 polymerase was compared to TdT polymerase.
as §1
Reactions were incubated at 37° C. for 30 min., and then heat-killed for 10 min. at 70° C. Reaction products were split in half, and one-half was treated with UV as described in Example 7. Reactions were then diluted 1:333 (2 uM primer) or 1:13 (80 nM primer) in water, and 0.5 ul portions were analyzed by capillary electrophoresis using the conditions provided in Example 7.

[3] = tested on: LTA-2; assay: Multi-cycle template-independent addition of LTA-2 (TiEOS); settings: 7-deaza-7-hydroxymethyl-α-tert-butyl-2-nitrobenzyl modified LTA, 3 or 6 cycles
Method: This example tested the multi-cycle addition of a 3′-OH unblocked reversible terminator (LTA-2, shown in FIG. 1F) to the 3′ end of a single-stranded priming strand using the Pfu26 mutant polymerase. Single-base extension assays were performed as described in Example 7 using Pfu26 with modified LTA-2 that has a-tert-butyl substituted 2-nitrobenyl terminating group attached to 7-deaza-C7hydroxymethyl group. The modified LTA-2 optionally contains the αS triphosphate modification and HPLC-purified to isolate the Sp isomer (FIGS. 13A and 13C). At each incorporation cycle (3 cycles-FIGS. 13A&13B; 6 cycles-FIG. 13C), 1 ul was removed and saved on ice for ABI 3500 analysis. At each cycle, the remaining reaction volume was purified using MyOne T1 […] beads as follows (for the 3-cycle experiment). 127.5 ul of beads were washed 2×in 1 ml wash solution and resuspended in the original volume with the wash solution. A biotinylated, antisense T7 (underlined) primer with spacer (5′-CCCTATAGTGAGTCGTATACGGAGCATA-biotin) was added at a final concentration of 180 nM. The beads and capture oligo were mixed at 300 rpm for 30 min. at room temperature, washed 2×in 500 ul wash solution, and resuspended in 150 ul of the same. […] After purification (cycles 2-6), 2 ul of fresh enzyme/LTA mix was added, and the primer extensions were performed and analyzed as described above.

B1: Pfu26: Pfu D141A/E143A/A486L/Y546H/K477W/L409Y, SEQ ID NO:4 (protein)
chain: MILDVDYITEEGKPVIRLFKKENGKFKIEHDRTFRPYIYALLRDDSKIEEVKKITGERHGKIVRIVDVEKVEKKFLGKPITVWKLYLEHPQDVPTIREKVREHPAVVDIFEYDIPFAKRYLIDKGLIPMEGEEELKILAFAIATLYHEGEEFGKGPIIMISYADENEAKVITWKNIDLPYVEVVSSEREMIKRFLRIIREKDPDIIVTYNGDSFDFPYLAKRAEKLGIKLTIGRDGSEPKMQRIGDMTAVEVKGRIHFDLYHVITRTINLPTYTLEAVYEAIFGKPKEKVYADEIAKAWESGENLERVAKYSMEDAKATYELGKEFLPMEIQLSRLVGQPLWDVSRSSTGNLVEWFLLRKAYERNEVAPNKPSEEEYQRRLRESYTGGFVKEPEKGLWENIVYLDFRAYYPSIIITHNVSPDTLNLEGCKNYDIAPQVGHKFCKDIPGFIPSLLGHLLEERQKIKTKMKETQDPIEWILLDYRQKLIKLLANSFYGYYGYAKARWYCKECAESVTAWGRKYIELVWKELEEKFGFKVLYIDTDGLHATIPGGESEEIKKKALEFVKYINSKLPGLLELEYEGFYKRGFFVTKKRYAVIDEEGKVITRGLEIVRRDWSEIAKETQARVLETILKHGDVEEAVRIVKEVIQKLANYEIPPEKLAIYEQITRPLHEYKAIGPHVAVAKKLAAKGVKIKPGMVIGYIVLRGDGPISNRAILAEEYDPKKHKYDAEYYIENQVLPAVLRILEGFGYRKEDLRYQKTRQVGLTSWLNIKKS
modifications: Mutant of Pyrococcus furiosus Polymerase
Template-independent incorporation of LTA-2, LTU-2, LTG-2 and LTC-2 (in words) ([1]; 18 nM polymerase, 5 uM terminators, CE2 and T7 oligonucleotides): superior to Calf thymus Terminal Transferase (TdT) | Template-independent incorporation of LTA-2 (in words) ([1]; single-stranded priming strand): efficient incorporation and termination | Template-independent incorporation of LTA-1 (in words) [2]: incorporate LTA-1 less efficiently | Multi-cycle addition of LTA-2 (in words) [3]: did not generate an individual product with 100% efficiency after 2-3 rounds of TiEOS
